Test results reported in doi:10.1101/2025.06.18.660498 (bioRxiv, 2025).

Assays:
[1] = target: T1, AF9 YEATS domain (1-138) (human, UniProt P42568 1-138); assay: ITC
T1 sequence (looked up): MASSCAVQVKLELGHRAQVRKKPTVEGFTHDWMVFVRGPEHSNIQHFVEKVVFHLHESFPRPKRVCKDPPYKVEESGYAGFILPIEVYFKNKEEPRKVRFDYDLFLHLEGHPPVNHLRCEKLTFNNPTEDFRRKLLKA

[2] = target: T2, AF9 YEATS domain F59Y (human, UniProt P42568 1-138, F59Y); assay: ITC
T2 sequence (looked up): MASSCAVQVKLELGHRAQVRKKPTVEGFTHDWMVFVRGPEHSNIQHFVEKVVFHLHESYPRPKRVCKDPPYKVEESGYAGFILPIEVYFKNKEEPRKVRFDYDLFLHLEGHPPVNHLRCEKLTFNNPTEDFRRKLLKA

[3] = target: T3, AF9-F28R YEATS domain (1-138) (human, UniProt P42568 1-138, F28R); assay: crystal structure
T3 sequence (looked up): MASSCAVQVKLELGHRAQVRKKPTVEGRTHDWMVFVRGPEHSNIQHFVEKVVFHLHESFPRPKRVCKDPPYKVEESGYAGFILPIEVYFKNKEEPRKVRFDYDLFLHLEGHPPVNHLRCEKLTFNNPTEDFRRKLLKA

Molecule | Kd [1] | fold reduction of affinity against WT AF9 YEATS [2] | binding result [3]
H3K9ac peptide (ITC) | 4.6 µM |  | 
H3K18la peptide | 172 µM |  | 
ARTKQTARKS (lactyl-lysine (L-lactylation) at K9) [H3K9la peptide (ITC)] | 74.4 µM | 2 fold | 
ARTKQTARKS (peptide, UniProt P68431 2-11, looked up, lactyl-lysine (L-lactylation) at K9) [H3_(1-10)K9la peptide] |  |  | binds
